Columns and labels:
Experiment in all cases: Kinetic analysis of hOGA-catalysed hydrolysis of fluorogenic substrates
Assay type in all cases: biochemical, human
[1] = substrate: CCNC(=O)N[C@H]1[C@H](Oc2ccc3c(C)cc(=O)oc3c2)O[C@H](CO)[C@@H](O)[C@@H]1O; settings: other: substrate of hOGA, pH 7.4 PBS, 2.5% DMF, 37.0 °C
From the text: (§1) Given the greater than 100-fold increase in potency we observe for the 2′-aminothiazoline inhibitors over their thiazoline counterparts and their structural resemblance to the oxazoline intermediate found along the reaction coordinate of hOGA, we wanted to assess whether incorporation of the 2′-amino group benefitted binding through serendipitous interactions, or whether the presence of the charge included in this class of inhibitors also made them TS analogues. We therefore turned to using the Bartlett LFER approach. […] We started from 4-methylumbelliferyl 2-amino-2-deoxy-β-D-glucopyranoside hydrochloride (16) as a common intermediate.[54] Per-O-acetylated urea substrates 17a–e were prepared by reacting 16 with the appropriate alkylisocyanate in the presence of triethylamine, followed by Zemplen de-O-acetylation. With this series of substrates (18a–e) in hand we determined the kcat/Km values governing their hOGA catalyzed hydrolysis (ESI Table S1 ^†). […] In contrast, we find no correlation between log Ki values for the inhibitors and log Km values for the series of substrates (Fig. 6B). […]
(§2) Biological evaluation: Gene expression and protein purification. hOGA was expressed and purified according to the previously described procedure by Macauley et al.[5] hOGA was dialyzed twice against PBS buffer after purification and its concentration determined using the Nanodrop2000. Human β-hexosaminidase was obtained from Micheal Tropak at the Hospital for Sick Children in Toronto, without further purification.
(§3) Kinetic analysis of hOGA. All assays were carried out in 96 well plates (Thermoscientific, FloroNunc, lot # 139825) in PBS pH 7.4 buffer (0.03% BSA) in triplicate at 37°C for 20 minutes. A continuous assay procedure was performed in which the reactions were initiated by the addition of 4-MUGlcNAc substrate (50 µL or 100 µL via a multi-channel […]
(§4) The excitation and emission were 350 and 445 nm, respectively. The amount of fluorogenic substrate liberated was quantitatively assessed by using a standard curve for 4-methylumbelliferone under identical buffer conditions. A total of 6-8 inhibitor concentrations were tested, […]
(§5) The hOGA concentrations in the assays ranged from 0.8 nM to 20 nM, depending on whether the Ki being determined was through classic Michaelis-Menten methods or the Morrison Ki fit. For full Ki […]
(§6) For the Morrison Ki analyses, only one substrate concentration was used (at the Km) since the method of inhibition was already known from analysis using the Line-weaver Burke plots. The representative hOGA Ki plots are summarized in Supplemental Figures S1, S2 and S3. Kinetic analysis of substrates 18a-e were performed in triplicate using pH 7.4 PBS buffer (0.03% BSA) containing 2.5% DMF, with varying enzyme concentrations. The Michaelis-Menten curves for substrates 18a-e with hOGA are summarized in Supplemental Figure S6 and the kinetic parameters are described in Supplemental Table S1. […]
(§7) # 139825) at pH 4.25 (50 mM citrate, 100 mM NaCl, 0.03% BSA) at 37°C in triplicate for 20 minutes. Enzymatic reactions were triggered by addition of substrate (20 µL or 15 µL) in a total volume of 45 or 40 µL. Reactions were quenched by the addition of a 4-fold excess (160 or 180 µL) of quenching buffer (200 mM glycine, pH 10.75) in order to […]

[2] = substrate: CCCCNC(=O)N[C@H]1[C@H](Oc2ccc3c(C)cc(=O)oc3c2)O[C@H](CO)[C@@H](O)[C@@H]1O; settings: other: substrate of hOGA, pH 7.4 PBS, 2.5% DMF, 37.0 °C
From the text: as §1, §2, §3, §4, §5, §6, §7

[3] = substrate: Cc1cc(=O)oc2cc(O[C@@H]3O[C@H](CO)[C@@H](O)[C@H](O)[C@H]3NC(N)=O)ccc12; settings: other: estimated by non-linear regression, saturation of hOGA not observed, pH 7.4 PBS, 2.5% DMF, 37.0 °C
From the text: as §1, §2, §3, §4, §5, §6, §7

[4] = substrate: CCCNC(=O)N[C@H]1[C@H](Oc2ccc3c(C)cc(=O)oc3c2)O[C@H](CO)[C@@H](O)[C@@H]1O; settings: other: substrate of hOGA, pH 7.4 PBS, 2.5% DMF, 37.0 °C
From the text: as §1, §2, §3, §4, §5, §6, §7

[5] = substrate: CNC(=O)N[C@H]1[C@H](Oc2ccc3c(C)cc(=O)oc3c2)O[C@H](CO)[C@@H](O)[C@@H]1O; settings: other: estimated by non-linear regression, saturation of hOGA not observed, pH 7.4 PBS, 2.5% DMF, 37.0 °C
From the text: as §1, §2, §3, §4, §5, §6, §7

B1: hOGA (Homo sapiens) (protein)
chain: MVQKESQATLEERESELSSNPAASAGASLEPPAAPAPGEDNPAGAGGAAVAGAAGGARRFLCGVVEGFYGRPWVMEQRKELFRRLQKWELNTYLYAPKDDYKHRMFWREMYSVEEAEQLMTLISAAREYEIEFIYAISPGLDITFSNPKEVSTLKRKLDQVSQFGCRSFALLFDDIDHNMCAADKEVFSSFAHAQVSITNEIYQYLGEPETFLFCPTEYCGTFCYPNVSQSPYLRTVGEKLLPGIEVLWTGPKVVSKEIPVESIEEVSKIIKRAPVIWDNIHANDYDQKRLFLGPYKGRSTELIPRLKGVLTNPNCEFEANYVAIHTLATWYKSNMNGVRKDVVMTDSEDSTVSIQIKLENEGSDEDIETDVLYSPQMALKLALTEWLQEFGVPHQYSSRQVAHSGAKASVVDGTPLVAAPSLNATTVVTTVYQEPIMSQGAALSGEPTTLTKEEEKKQPDEEPMDMVVEKQEETDHKNDNQILSEIVEAKMAEELKPMDTDKESIAESKSPEMSMQEDCISDIAPMQTDEQTNKEQFVPGPNEKPLYTAEPVTLEDLQLLADLFYLPYEHGPKGAQMLREFQWLRANSSVVSVNCKGKDSEKIEEWRSRAAKFEEMCGLVMGMFTRLSNCANRTILYDMYSYVWDIKSIMSMVKSFVQWLGCRSHSSAQFLIGDQEPWAFRGGLAGEFQRLLPIDGANDLFFQPPPLTPTSKVYTIRPYFPKDEASVYKICREMYDDGVGLPFQSQPDLIGDKLVGGLLSLSLDYCFVLEDEDGICGYALGTVDVTPFIKKCKISWIPFMQEKYTKPNGDKELSEAEKIMLSFHEEQEVLPETFLANFPSLIKMDIHKKVTDPSVAKSMMACLLSSLKANGSRGAFCEVRPDDKRILEFYSKLGCFEIAKMEGFPKDVVILGRSL
notes: made in house
B1 gave a Km [1] of 85 ± 20 µM, a Km [2] of 30 ± 3 µM and a Km [3] of 1265 ± 259 µM. It also gave a Km [4] of 120 ± 11 µM and a Km [5] of 1825 ± 542 µM.

Source: PMC6008586, “Analysis of transition state mimicry by tight binding aminothiazoline inhibitors provides insight into catalysis by human O-GlcNAcase” (Chemical Science, 2016)
